Assay results: patent US12648572B2, “Proteolytically stable U1-agatoxin-Ta1b variant polypeptides for pest control” (Vestaron Corporation, priority 2020, dated 2026)
“And” between values parts separate entries of the source, which are not always exact repeats. Equal values may be shown once.

Key:
[1] = test system: Manduca Gut Extract (MGE); experiment: Manduca Gut Extract (MGE) digest of TVPs; assay type: in vitro ADME, Manduca sexta; conditions: for Fold Stability Improvement: in the presence of MGE, relative to Ta1b; for Half Life (min) Manduca Gut Extract (MGE): 1 mg/mL TVP, 1/10 diluted MGE, 50 mM Tris-HCl pH 8.8; for Fold Change (MGE): half life relative to WT Ta1b
Protocol: (§1) To determine the stability of TVPs when exposed to lepidopteran gut proteases. Briefly, 5th instar Manduca sexta were dissected by making a small incision to the intestinal lining such that gut contents could be collected in a tube. Multiple dissections were pooled and kept on ice for immediate use, or stored at −80° C. for future use. The isolated midgut (referred to hereinafter as Manduca Gut Extract, or MGE) was then for digest assays. Next, 1 mg/mL TVP was incubated with 0.1 mg/mL bovine trypsin, or 1/10 diluted MGE with 50 mM Tris-HCl, pH 8.8 to maintain alkaline pH. Time points were taken and the digest quenched with the addition of 200 mM HCl. Degradation was quantified by HPLC analysis and rates were determined by fit to a single exponential decay.
(§2) TVPs were assessed for stability in the presence of MGE (as described above). Activity was assessed by injection into houseflies (Musca domestica): […] intrathoracically into houseflies with an average mass of 18 mg. The dose required for 50% knockdown and mortality was determined at 24 hour post-injection.

[2] = test system: houseflies (Musca domestica); experiment: Housefly injection assay; assay type: in vivo; conditions: for Activity relative to wild-type Ta1b, in words: housefly injection; for Fold Activity Reduction: housefly intrathoracic injection, 24 hour post-injection, relative to wild-type Ta1b; for Fly KD50: dose for 50% knockdown, 24 hours post-injection
Protocol: as §2
Activity of the TVPs identified in the mutant stability assay were assessed by injection into houseflies (Musca domestica). Wild-type Ta1b and the TVPs with amino acid substitutions at positions R9Q and R9N were injected intrathoracically into houseflies with an average mass of 18 mg, at an injection dose of 0.5 μL of toxin or control. The dose of TVP required for 50% knockdown (KD50) was then determined at 24-hours post-injection. […] FIG. 2.
The TVPs: (1) TVP-R9Q; (2) TVP-R9QΔG; (3) TVP-R9Q/T43A/ΔG; (4) TVP-R9Q/T43A; and (5) TVP-R9Q/T43A/ΔK-G, were analyzed in a housefly injection assay. Housefly injections were performed as previously described herein.

bovine trypsin = target: T1, bovine trypsin (Bos taurus, UniProt P00760); experiment: Bovine trypsin digest of TVPs; assay type: in vitro ADME; conditions: for Half Life (min) Bovine Trypsin: 1 mg/mL TVP, 0.1 mg/mL bovine trypsin, 50 mM Tris-HCl pH 8.8; for Trypsin digestion, in words: alanine scan of basic amino acids; for Fold Change (Trypsin): half life relative to WT Ta1b
T1 sequence (P00760 24-246): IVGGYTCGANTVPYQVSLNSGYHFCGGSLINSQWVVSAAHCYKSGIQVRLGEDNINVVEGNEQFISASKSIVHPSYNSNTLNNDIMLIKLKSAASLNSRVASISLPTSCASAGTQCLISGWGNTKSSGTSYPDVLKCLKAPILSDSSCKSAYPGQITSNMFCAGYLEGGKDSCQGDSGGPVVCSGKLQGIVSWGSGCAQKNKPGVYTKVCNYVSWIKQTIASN
Protocol: as §1
Lepidopteran gut contains trypsin-like proteases that cut after Arg or Lys amino acids; without wishing to be bound by any particular theory, we hypothesized that singly mutating these amino acids to alanine could identify the site(s) that are causing degradation in lepidopteran gut. To test the foregoing hypothesis, TVPs were created by individually mutating each basic amino acid to alanine present in the wild-type Ta1b amino acid sequence. Next, the stability of each of these TVPs was assessed by confronting the TVPs with the digestion conditions as described above.

[3] = test system: Helicoverpa gut extract (HGE); experiment: Helicoverpa gut extract (HGE) digest, position 9 scan; assay type: in vitro ADME, Helicoverpa zea; conditions: for Half-Life: 30 mM Tris-HCl pH 8.8, time points 0, 3, 22.5 hours
Protocol: To determine the stability of TVPs when exposed to lepidopteran gut proteases, early fifth instar Helicoverpa zea larvae were dissected to remove the intact digestive tract from other tissues and hemolymph. To obtain the Helicoverpa gut extract (HGE), a small incision was made to the intestinal lining such that gut contents could be collected in a tube. Multiple dissections were pooled and kept on ice for immediate use, or stored at −80° C. for future use.
Wild-type Ta1b (SEQ ID NO: 1) was used as a template, and mutated at amino acid substitution at position 9, (i.e., R9; SEQ ID NO: 1) to produce the TVPs evaluated here; these TVPs have a substitution of the arginine at position 9 (i.e., R9) of the wild-type amino acid sequence (SEQ ID NO: 1), with one of the amino acids F, P, Y, K, W, H, A, G, N, L, D, V, M, I, Q, C, E, T, and S; in addition, a TVP with an R9Q+T43A mutation (relative to wild-type Ta1b) was likewise evaluated (SEQ ID NO: 85).
The TVPs described above and shown in Table 19 were confronted with Helicoverpa gut extract (HGE) to simulate digestion in the lepidopteran gut environment. Here, the TVPs were incubated with 6× diluted amount of HGE obtained from Helicoverpa deep well cell growths. The 6× diluted UGE was supplemented with 30 mM Tris-HCl, pH 8.8, to maintain the alkaline pH of the Helicoverpa gut environment.
Samples of the digested TVPs were collected at time points of 0, 3, and 22.5 hours. To quench the digestion process, 30 mM Glycine, pH 2.0 was added to the samples, and the samples of the digested TVPs were immediately analyzed using reverse-phase HPLC to quantify the TVP peak area.

[4] = test system: corn earworm (Helicoverpa zea); experiment: Corn earworm injection assay; assay type: in vivo; conditions: fourth instar larvae, 24 hours after injection; ± standard error of the mean
Protocol: First, WT Ta1b (WT) and the R9Q mutant of Ta1b (TVP-R9Q) were evaluated in a lepidopteran injection assay. The experimental unit consisted of 8 injected individual corn earworm (Helicoverpa zea) per peptide dose. There were four experimental replicates per peptide. Prior to injection, corn earworm larvae were reared to their fourth instar on standard lepidoptera diet. The larvae were weighed to determine accurate dose calculations. The exact doses varied slightly between replicates because of variations in corn earworm larvae mass, but the approximate doses injected were: 1000, 2000, 4000, and 8000 pmol/g. Injections were performed using a hand microapplicator and a syringe fitted with a 30 gauge needle. Larvae were injected at the base of one of their most posterior prolegs. Larvae were injected with 1 μL of treatment solution.
After injection, larvae were placed in a well of a 32-well tray filled with 5 mL of standard lepidoptera diet. The trays were then placed in a 28° C. Incubator. The condition of the larvae were evaluated 24 hours after injection.

[5] = test system: neonate corn earworm (Helicoverpa zea); experiment: Corn earworm oral foliar bioassay; assay type: in vivo; conditions: sprayed lettuce leaf discs, fourth day, ± standard error of the mean
Protocol: In the oral foliar bioassay, the experimental unit consisted of 12 leaf discs (per peptide concentration) sprayed (front and back) with a total spray volume of 5.5 mL (2.75 mL for each side) on which neonate corn earworm (Helicoverpa zea) were allowed to feed. There were four experimental replicates per peptide.
Romaine lettuce was cut into 30 mm diameter disks, and then sterilized using a 140 ppm bleach solution; the disks were then triple rinsed in water. The romaine lettuce disks were then pinned to a Styrofoam board and sprayed with a given treatment; the disks were flipped, sprayed again, allowed to dry, and placed in the arena.
The arena was 32-well rearing tray containing 5 mL of 1% agar. One romaine lettuce disk was placed in each well, with a single first instar corn earworm (Helicoverpa zea) per leaf disk. The trays were then placed in a 28° C. Incubator.
Mortality of the corn earworms was evaluated on the fourth day after spraying and larvae application to the leaf discs. Larvae were scored as either alive (moving and feeding normally) or dead (immobile, discolored).

Substance	Fold Stability Improvement [1] [fold]	Activity relative to wild-type Ta1b, in words [2]	Fold Activity Reduction [2]	Half Life (min) Bovine Trypsin (bovine trypsin) [min]	further results
A8N: TVP with substitution A8N (EPDEICRNRMTNKEFTYKSNVCNNCGDQVAACEAECFRNDVYTACHEAQKG; listed as Eratigena agrestis)	1.8	–	–	–	–
A8S: TVP with substitution A8S (EPDEICRSRMTNKEFTYKSNVCNNCGDQVAACEAECFRNDVYTACHEAQKG; listed as Eratigena agrestis)	12.1	maintain activity similar to the native Ta1b	1.3 fold	–	Digestibility by Manduca Gut Extract (MGE), in words [1]: significant reduction in digestibility
EPDEICRAAMTNKEFTYKSNVCNNCGDQVAACEAECFRNDVYTACHEAQKG (TVP-R9A)	247	–	9 fold and 8.7 fold	>6000	Half Life (min) Manduca Gut Extract (MGE) [1]: 370 min; Fold Change (MGE) [1]: 247 fold; Trypsin digestion, in words (bovine trypsin): completely abolished trypsin digestion; Fold Change (Trypsin) (bovine trypsin): >20 fold
EPDEICRAEMTNKEFTYKSNVCNNCGDQVAACEAECFRNDVYTACHEAQKG (TVP-R9E)	–	–	>10 fold	–	–
EPDEICRAHMTNKEFTYKSNVCNNCGDQVAACEAECFRNDVYTACHEAQKG (TVP-R9H)	16.2	–	2.5 fold	–	–
EPDEICRANMTNKEFTYKSNVCNNCGDQVAACEAECFRNDVYTACHEAQKG (TVP-R9N)	>50	maintain activity similar to the native Ta1b	1.5 fold	–	Digestibility by Manduca Gut Extract (MGE), in words [1]: significant reduction in digestibility
EPDEICRARMTNKEFTYKSNVCNNCGDQVAACEAECFRNDVYTACHEAQKG (listed as Eratigena agrestis) [WT Ta1b, reference compound]	–	–	–	288	Half Life (min) Manduca Gut Extract (MGE) [1]: 1.5 min; Fly KD50 [2]: 167 pmol/g; Half-Life ([3]; 6× diluted HGE): 1.9 h; Injection LD50 [4]: 2933 ± 827 pmol/g; Oral Bioassay % Mortality at 3 ppt [5]: 6 ± 3%
EPDEICRATMTNKEFTYKSNVCNNCGDQVAACEAECFRNDVYTACHEAQKG (TVP-R9T) [T (Position 9)]	–	–	–	–	Result (Stable/Unstable) ([3]; 6× diluted HGE): Stable; Half-Life ([3]; 6× diluted HGE): 95.8 h; Gut extract digestion, in words ([3]; 6× diluted gut extract, relative to wild type Ta1b): completely abolished UGE digestion
K18A: TVP: wild-type Ta1b with basic amino acid K18 mutated to alanine (EPDEICRARMTNKEFTYASNVCNNCGDQVAACEAECFRNDVYTACHEAQKG; listed as Eratigena agrestis)	–	–	–	1194	Trypsin digestion, in words (bovine trypsin): modest, albeit significant reduction in digestibility; Fold Change (Trypsin) (bovine trypsin): 4.1 fold
R38A: TVP: wild-type Ta1b with basic amino acid R38 mutated to alanine (EPDEICRARMTNKEFTYKSNVCNNCGDQVAACEAECFANDVYTACHEAQKG; listed as Eratigena agrestis)	8.6	did not show any reduction in activity	1.0 fold	1860	Half Life (min) Manduca Gut Extract (MGE) [1]: 19 min; Fold Change (MGE) [1]: 8.6 fold; Trypsin digestion, in words (bovine trypsin): modest, albeit significant reduction in digestibility; Fold Change (Trypsin) (bovine trypsin): 6.5 fold
T11P: TVP with substitution T11P (EPDEICRARMPNKEFTYKSNVCNNCGDQVAACEAECFRNDVYTACHEAQKG; listed as Eratigena agrestis)	92.9	maintain activity similar to the native Ta1b	1.4 fold	–	Digestibility by Manduca Gut Extract (MGE), in words [1]: significant reduction in digestibility
TVP-R9Q/ΔG: TVP-R9Q with the C-terminal glycine removed (EPDEICRAQMTNKEFTYKSNVCNNCGDQVAACEAECFRNDVYTACHEAQK; C-terminal Gly deleted; TVP-R9QdG)	–	–	–	–	Fly KD50 [2]: 136 pmol/g
